Test [1] addresses Human IL2Rγ extracellular domain expressed with a C-terminal mouse IgG2a Fc tag (human). The test is described as follows: SPR Biacore 4000, anti-hFc-captured mAb, 37 C.
Test [2] shares this target. The test is described as follows: SPR Biacore 4000, anti-hFc-captured mAb, 25 C. (In general: SPR reads the build-up and loss of mass on a sensor chip optically.)
Test [3] has as its target human IL2Rγ (endogenously expressed on cells) (human) (UniProt P31785). The test is described as follows: cell-based or functional assay.

Residue numbers refer to the chain shown, from its start.

Sequence of Human IL2Rγ extracellular domain expressed with a C-terminal mouse IgG2a Fc tag (human) (chain, as listed by the source limits assumed): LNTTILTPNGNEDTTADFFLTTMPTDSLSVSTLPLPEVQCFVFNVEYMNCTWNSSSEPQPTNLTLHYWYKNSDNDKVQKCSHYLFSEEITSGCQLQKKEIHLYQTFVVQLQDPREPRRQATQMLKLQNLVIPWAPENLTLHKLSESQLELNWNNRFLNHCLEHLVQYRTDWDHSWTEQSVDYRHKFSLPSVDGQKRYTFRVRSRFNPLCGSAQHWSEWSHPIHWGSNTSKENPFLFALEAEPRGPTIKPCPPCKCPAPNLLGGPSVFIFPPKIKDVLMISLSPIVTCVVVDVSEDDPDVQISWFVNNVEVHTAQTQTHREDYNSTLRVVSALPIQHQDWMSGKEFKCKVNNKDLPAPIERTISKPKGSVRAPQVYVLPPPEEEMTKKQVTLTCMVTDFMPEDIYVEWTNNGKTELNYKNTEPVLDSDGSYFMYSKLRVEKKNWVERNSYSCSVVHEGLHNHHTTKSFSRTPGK
Sequence of human IL2Rγ (endogenously expressed on cells) (human) (P31785 23-369): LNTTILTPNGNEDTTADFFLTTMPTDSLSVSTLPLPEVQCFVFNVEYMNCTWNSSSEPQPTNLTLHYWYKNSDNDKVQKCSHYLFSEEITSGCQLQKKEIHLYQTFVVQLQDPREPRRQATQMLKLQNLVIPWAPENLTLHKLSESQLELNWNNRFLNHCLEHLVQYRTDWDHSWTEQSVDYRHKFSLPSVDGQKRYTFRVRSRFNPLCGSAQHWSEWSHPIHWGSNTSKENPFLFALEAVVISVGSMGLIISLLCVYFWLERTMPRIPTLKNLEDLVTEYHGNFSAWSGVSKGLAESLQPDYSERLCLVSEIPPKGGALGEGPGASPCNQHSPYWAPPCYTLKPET

B1: H4H12899P (antibody, human IgG4 S228P, kappa, V domains shown)
VH: QVQLVESGGDLVKPGGSLRLSCATSGFTFSDFYMTWIRQAPGKGLEWISYISNSGSIVKYADSVKGRFTISRDNAKNSLYLQMNSLRAEDTAIYYCARFYGDRWGQGTLVTVSS
VL: DIQLTQSPSFLSASVGDRVTITCWASQGISTFLAWYQQKPGKAPKLLIYAASTLQSGVPSRFSGSGSGTDFTLTISSLQPEDFATYHCQQLNNYPWTFGQGTKVEIKR
In the case of B1, the 50 nM Ag Bound in test [1] was found to be 2 RU; in test [2], 1 RU.

B2: H4H12900P (antibody, human IgG4 S228P, kappa, V domains shown)
VH: QVQLVESGGGLVKPGGSLRLSCEASGFTFNDFYMTWIRQAPGKGLEWIAYISKSGDKMRYADSVKGRFSTSRDNAKNSLSLQMNSLRAEDTAVYYCARFYGDIWGQGTLVTVSS
VL: B1 VL with G28D, T31S, A34V, K45N, T53A, D70E, T85S, H87Y, Q89E
Regarding B2, the 50 nM Ag Bound in test [1] and in test [2] was 4 RU each time.

B3: human IL-7 (ligand, UniProt P13232 26-177, looked up)
chain: DCDIEGKDGKQYESVLMVSIDQLLDSMKEIGSNCLNNEFNFFKRHICDANKEGMFLFRAARKLRQFLKMNSTGDFDLHLLKVSEGTTILLNCTGQVKGRKPAALGEAQPTKSLEENKSLKEQKKLNDLCFLKRLLQEIKTCWNKILMGTKEH
In test [3], B3 gave an EC50; IL-7 dose response; NK92/hIL7R/STAT3-luc of 0.039 nM.

(Values after patent US20200247894A1.)
